Results taken from US20080213281A1, “Butyrylcholinesterase Variants that Alter the Activity of Chemotherapeutic Agents” (priority 2002, published 2008).
Residue numbers refer to the chain shown, from its start. In names and notes the source's numbering stands. Read-outs that look alike come from different tables or passages of the source.

Columns and labels:
CD20 (human) = CD20 (human) (UniProt P11836); experiment: method not stated
[1] = patients treated with 200 mg/m2 CPT-11; for at least 24 hours; Ducreux et al.; cited from earlier work
[2] = in vitro; Pavillard et al.; cited from earlier work
[3] = cited from earlier work; for Km: Humerickhouse et al., read-out: Km (CPT-11 conversion)
CD20 = biological target: T1, CD20 (Homo sapiens, UniProt P11836); experiment: affinity of monovalent AME133 Fab for CD20; type: binding
T1 sequence (P11836 1-297): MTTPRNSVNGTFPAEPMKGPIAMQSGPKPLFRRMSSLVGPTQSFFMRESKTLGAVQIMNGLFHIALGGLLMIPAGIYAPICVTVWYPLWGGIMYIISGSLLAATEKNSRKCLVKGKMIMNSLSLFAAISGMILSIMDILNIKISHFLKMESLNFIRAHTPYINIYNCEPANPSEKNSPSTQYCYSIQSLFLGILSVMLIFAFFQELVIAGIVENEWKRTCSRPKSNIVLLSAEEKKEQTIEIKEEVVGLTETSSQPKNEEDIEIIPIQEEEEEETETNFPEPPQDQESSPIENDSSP
Description: AME133 is a humanized anti-CD20 with fully human germline framework regions shown in FIGS. 19 and 20 and set forth as SEQ ID NOS: 198 and 200, with corresponding nucleic acid sequences SEQ ID NOS: 197 and 199. This antibody was generated at Applied Molecular Evolution using the company's directed evolution strategies, and the monovalent Fab binds to CD20 with extremely high affinity (1×10^−9 M). Anti-CD20-BChE.4-1 (SEQ ID NO: 202) is composed of AME133 Fab fused at the C-terminal end of the CH1 heavy chain domain to the N-terminus of modified BChE variant L530 (SEQ ID NO: 204), which is a functional fragment of reference SEQ ID NO: 180. The BChE variant was truncated at amino acid 530 to abrogate its normal assembly into tetramers.

[4] = o-nitrophenyl acetate (o-NPA) hydrolysis assay for carboxylesterase activity of antibody-captured butyrylcholinesterase variants; type: biochemical; details: antibody capture/normalization
Method: A modification of this assay that measures o-NPA activity of butyrylcholinesterase variants normalized by capturing with an anti-butyrylcholinesterase antibody was performed as described below.
Protocol to Determine Carboxylesterase activity of Captured Butyrylcholinesterase by o-Nitrophenyl acetate:
1) Coat 96-well Immulon 2 plates with rabbit anti-human butyrylcholinesterase (Dako #A0032) at 10 mg/ml in PBS (100 ml/well) overnight at 4° C. 2) Remove coating solution and block plate with 3% BSA in PBS (250 ml/well) for 2 hours at room temperature. 3) Add 200 ml butyrylcholinesterase variant conditioned media and incubate at RT for 2 hrs. 4) Wash plate 3 times with 250 ml/well PBS. 5) Add 85 ml/well 0.1 M potassium phosphate pH 7.0 6) Add 13.6 mg o-NPA to 100 ml acetonitrile, mix to dissolve. Add 100 ml of this stock to 6.3 mls water and mix well. 7) Wash plate 3 times with PBS. 8) Add 15 ml of diluted o-NPA substrate. 9) Read absorbance at 405 nm.
Conditioned media from butyrylcholinesterase variants that were transiently expressed in 293T cells was tested using the above described anti-butyrylcholinesterase antibody capture/normalization assay for carboxylesterase activity. […] The level of activity of the other variants can be compared to the level of activity of F227A. […] In order to determine the amount of variability present in the assay, several wells contained the same variant. […]

[5] = HPLC assay of CPT-11 conversion to SN-38 by conditioned media of transiently expressed BChE variants; type: biochemical; details: for SN-38 formation from CPT-11 (in words): HPLC, compared to mock or wild-type
Method: Butyrylcholinesterase variants were assayed for CPT-11 conversion activity using fluorescent High Performance Liquid Chromotography (HPLC) detection of SN-38 formation as described in Dodds and Rivory, Mol. Pharmacol. 56:1346-1353 (1999), which is incorporated herein by reference. Briefly, conditioned media from transiently expressed BChE variants were exposed to 20 mM CPT-11 for 72 hours at 37° C. and analyzed by HPLC for SN-38 formation (peak at about 4 minutes column retention time).

[6] = CPT-11 hydrolysis by BChE variant 4-1, SN38 quantitated by reverse-phase HPLC, Km by Hofstee plot; type: biochemical; details: for Km / fold increase in CPT-11 hydrolysis over wild-type BChE: 37° C., 24 hours; for Km: 1-80 μM CPT-11; for fold increase in CPT-11 hydrolysis over wild-type BChE: SN38 peak AUC; for fold improvement in the Km for CPT-11: over wild-type / native serum BChE
Method: BChE plasmid variants were expressed transiently in the human embryonic kidney cell line 293T and assayed for activity at 72 hours post-transfection. Primary screening of variants was performed by indirect measurement of enzymatic activation of CPT-11 (FIG. 2) in SW48 colon carcinoma cell cytotoxicity assays. […] Functional hits identified in these assays were characterized by sequence analysis of the corresponding DNA from the original preps. […] Enzyme was incubated at 37° C. for 24 hours with CPT-11 over a range of concentrations from 1-80 μM. […] Velocity (v) is in light absorbance units at 540 nm. Substrate concentration [s] is μM CPT-11.
Samples were acidified and resolved by reverse-phase HPLC on a NovaPak C18 column to separate SN38 from unactivated CPT-11. SN38 peak area under the curve (AUC) was used to compare CPT-11 activation by the wild-type enzyme to the optimized BChE.4-1 variant.

“AME133 Fab (humanized anti-CD20 with fully human germline framework regions)” gave a Kd (CD20 (human)) of 1 nM.

For `CCc1c2c(nc3ccc(OC(=O)N4CCC(N5CCCCC5)CC4)cc13)-c1cc3c(c(=O)n1C2)COC(=O)[C@]3(O)CC` [CPT-11, 7-ethyl-10-[4-(1-piperidino)-1-piperidine]carbonyloxycamptothecin], the “plasma concentration of CPT-11” value [1] is listed as “above 0.1 μM”.

For `CCc1c2c(nc3ccc(O)cc13)-c1cc3c(c(=O)n1C2)COC(=O)[C@]3(O)CC` [SN38, 7-ethyl-10-hydroxycamptothecin], the “fold more cytotoxic than CPT-11” value [2] is listed as “greater than 1000 fold”.

In the case of hCE-1, the Km [3] is listed as 43 µM.

B1: hCE-2 (protein, UniProt O00748 27-559, looked up)
Cocaine esterase: QDSASPIRTTHTGQVLGSLVHVKGANAGVQTFLGIPFAKPPLGPLRFAPPEPPESWSGVRDGTTHPAMCLQDLTAVESEFLSQFNMTFPSDSMSEDCLYLSIYTPAHSHEGSNLPVMVWIHGGALVFGMASLYDGSMLAALENVVVVIIQYRLGVLGFFSTGDKHATGNWGYLDQVAALRWVQQNIAHFGGNPDRVTIFGESAGGTSVSSLVVSPISQGLFHGAIMESGVALLPGLIASSADVISTVVANLSACDQVDSEALVGCLRGKSKEEILAINKPFKMIPGVVDGVFLPRHPQELLASADFQPVPSIVGVNNNEFGWLIPKVMRIYDTQKEMDREASQAALQKMLTLLMLPPTFGDLLREEYIGDNGDPQTLQAQFQEMMADSMFVIPALQVAHFQCSRAPVYFYEFQHQPSWLKNIRPPHMKADHGDELPFVFRSFFGGNYIKFTEEEEQLSRKMMKYWANFARNGNPNGEGLPHWPLFDQEEQYLQLNLQPAVGRALKAHRLQFWKKALPQKIQELEEPEERHTEL
For B1, the Km [3] is listed as 3.4 µM and the “rate of CPT-11 conversion to SN38, fold higher than hCE-1” value ([3]; at pharmacologically relevant drug concentrations (˜1-10 μM)) is listed as 25-30 fold.

B2: AME133 (protein)
light: EIVLTQSPGTLSLSPGERATLSCRASSSVPYIHWYQQKPGQAPRLLIYATSALASGIPDRFSGSGSGTDFTLTISRLEPEDFAVYYCQQWLSNPPTFGQGTKLEIKRTVAAPSVFIFPPSDEQLKSGTASVVCLLNNFYPREAKVQWKVDNALQSGNSQESVTEQDSKDSTYSLSSTLTLSKADYEKHKVYACEVTHQGLSSPVTKSFNRGEC
heavy: EVQLVQSGAEVKKPGESLKISCKGSGRTFTSYNMHWVRQMPGKGLEWMGAIYPLTGDTSYNQKSKLQVTISADKSISTAYLQWSSLKASDTAMYYCARSTYVGGDWQFDVWGKGTTVTVSSASTKGPSVFPLAPSSKSTSGGTAALGCLVKDYFPEPVTVSWNSGALTSGVHTFPAVLQSSGLYSLSSVVTVPSSSLGTQTYICNVNHKPSNTKVDKKAEPKSCDKTHTCPPCPKLEDDIIIATKNGKVRGMNLTVFGGTVTAFLGIPYAQPPLGRLRFKKPQSLTKWSDIWNATKYANSCCQNIDQSFPGFFGSEMWNPNTDLSEDCLYLNVWIPAPKPKNATVLIWIYGGGFQTGTSSLHVYDGKFLARVERVIVVSMNYRVGALGFLALPGNPEAPGNMGLFDQQLALQWVQKNIAAFGGNPKSVTLFGESAGAASVSLHLLSPGSHSLFTRAILQSGSANAPWAVTSLYEARNRTLNLAKLTGCSRENETEIIKCLRNKDPQEILLNEAFVVPYGTNLSVNFGPTVDGDFLTDMPDILLELGQFKKTQILVGVNKDEGTAFLAYGAPGFSKDNNSIITRKEFQEGLKIFFPGVSEFGKESILFHYTDWVDDQRPENYREALGDVVGDYNFICPALEFTKKFSEWGNNAFFYYFEHRSSKLPWPEWMGVMHGYEIEFVFGLPLERRDNYTKAEEILSRSIVKRWANFAKYGNPNETQNNSTSWPVFKSTEQKYLTLNTESTRIMTKLRAQQCRFWTSFFPKV
modifications: Synthetic butyrylcholinesterase variant; MISC_FEATURE (1)..(213): Anti-CD20 antibody light chain; MISC_FEATURE (1)..(765): Anti-CD20 antibody VH-CH1 hinge cys L530 BChE.4-1 heavy chain construct
In the case of B2, the Kd (CD20) is reported as 1 nM.

B3: wild-type butyrylcholinesterase (protein, UniProt P06276 29-602, looked up)
Cholinesterase: EDDIIIATKNGKVRGMNLTVFGGTVTAFLGIPYAQPPLGRLRFKKPQSLTKWSDIWNATKYANSCCQNIDQSFPGFHGSEMWNPNTDLSEDCLYLNVWIPAPKPKNATVLIWIYGGGFQTGTSSLHVYDGKFLARVERVIVVSMNYRVGALGFLALPGNPEAPGNMGLFDQQLALQWVQKNIAAFGGNPKSVTLFGESAGAASVSLHLLSPGSHSLFTRAILQSGSFNAPWAVTSLYEARNRTLNLAKLTGCSRENETEIIKCLRNKDPQEILLNEAFVVPYGTPLSVNFGPTVDGDFLTDMPDILLELGQFKKTQILVGVNKDEGTAFLVYGAPGFSKDNNSIITRKEFQEGLKIFFPGVSEFGKESILFHYTDWVDDQRPENYREALGDVVGDYNFICPALEFTKKFSEWGNNAFFYYFEHRSSKLPWPEWMGVMHGYEIEFVFGLPLERRDNYTKAEEILSRSIVKRWANFAKYGNPNETQNNSTSWPVFKSTEQKYLTLNTESTRIMTKLRAQQCRFWTSFFPKVLEMTGNIDEAEWEWKAGFHRWNNYMMDWKNQFNDYTSKKESCVGL
With B3 the “carboxylesterase activity relative to the level of activity seen with F227A” value [4] was “approximately 50%”, the CPT-11 conversion ([5]; HPLC assay, conditioned media) was “less than 1%” and the “SN-38 formation from CPT-11 (in words)” value ([5]; conditioned media) was “did not show detectable levels of SN-38”. The Km [6] was 40 µM.

B4: F227A/S287P (protein)
chain: B3 Cholinesterase with F227A, S287X
modifications: Synthetic butyrylcholinesterase variant; VARIANT (227)..(227): F227A; VARIANT (287)..(287): Xaa = Pro
In the case of B4, the “Fold improvement in CPT-11 conversion” value ([5]; compared to wild-type butyrylcholinesterase, conditioned media exposed to 20 mM CPT-11 for 72 hours at 37° C., conservative values) is reported as over 6 fold and the “SN-38 formation from CPT-11 (in words)” value ([5]; conditioned media) is reported as “increased CPT-11 conversion to SN-38”.

B5: 4-1 variant (protein)
chain: B3 Cholinesterase with H77F, F227X, P285N, V331A
modifications: Synthetic butyrylcholinesterase variant; VARIANT (77)..(77): H77F; VARIANT (227)..(227): Xaa = Ala; VARIANT (285)..(285): P285N; VARIANT (331)..(331): V331A
With B5 the Km [6] was about 7 µM, the Km ([6]; listed as BChE variant 4-1) was 6.9 µM and the “fold increase in CPT-11 hydrolysis over wild-type BChE” value (“fold increase in CPT-11 hydrolysis” below) [6] was over 3000 fold. The “fold increase in CPT-11 hydrolysis” value ([6]; listed as BChE variant 4-1) was over 3000 fold, the “fold increase in CPT-11 hydrolysis” value ([6]; listed as SEQ ID NO: 180) was “three thousand” and the “fold improvement in the Km for CPT-11” value [6] was 5-6 fold. For the same molecule, the “fold improvement in the Km for CPT-11” value ([6]; listed as BChE variant 4-1) was over 5 fold.
